Laboratory results taken from patent US5646120, “Peptide-based inhibitors of HIV replication” (Allelix Biopharmaceuticals, Inc.).

Key:
[1] = target: T1, Tat basic domain wild-type oligopeptide ([…]) (HIV-1, UniProt P04608 P04608:49-57); assay: EMSA; affinity similar to tat(1-86); conditions: protein: synthetic; tags: synthetic L-peptide, American Peptide Company; hairpin
T1 chain: RKKRRQRRR

HIV-1 Tat(1-86) = HIV-1 Tat(1-86) (HIV-1, UniProt P04608 P04608:1-86); assay: EMSA; TAR variant stated not to bind tat; conditions: hairpin

## GGAGAUCUGAGCCUGGGAGCUCUCUCC (ssRNA) [truncated functional TAR RNA]
[1]
  binding result: binds

## GGAGAACUGAGCCUGGGAGCUCUCUCC (ssRNA) [TAR variant not binding tat]
HIV-1 Tat(1-86)
  binding result: no binding
